Measured values taken from patent US10513713B2, “Modified host cells having tolerance to α-olefins” (priority 2014, dated 2019).

B1: Pseudoalteromonas haloplanktis TAC125: heterologous RND efflux pump, AcrB homolog from Pseudoalteromonas haloplanktis TAC125 (protein, listed as Pseudoalteromonas haloplanktis)
chain: MSRYFIDKPIFAWVLAIIVMLAGILAVKSLPIAQYPSIAPPAISITANYPGASAQTLEDSVTQVIEQKMKGLDGLLYMSSTSESNGSATLTLTFNADTDPDIAQVQVQNKLATATPLLPEEVQRQGVVVAKAARNFLLVLAFVSKDGSMTNIDIGDYVASNVQDIVSRVDGVGEAQLFGSQYAMRIWLDPAKLQNFKLTPNDIGAAITAQNAQVSAGQLGGMPAIAGQQLNATITAQSRLQTPEQFENILVKTNSDGSVVRLKDVARVELGGENYGVVARYNGDPAAGIGIKLASGANALDTAEGVKKALEDLKPFFPEGLDVAIPYDTTPFVSLSIEKVVHTLIEAVILVFVVMYLFLQNFRATLIPTIAVPVVLLGTFAILYTFGYSINTLTMFAMVLAIGLLVDDAIVVVENVERLMTEEKLSALDATRKSMDEIKGALVGIAMVLSAVFIPMAFFSGSTGVIYRQFSITIVSAMGLSVLVALILTPALCATLLKPSHVHDKTSFIGRFFSGFNRGFDKTNRGAQGIVGRMISQSKRYLLIYGVLVGGMVYVFSSLPTAFLPDEDQGILFNQVMLPAGSTIEQTLGVVEKVENHYLNDQAEAVGSIFTVTGFSFAGSGQNSAIGFVNLKHWDERQRDDLSVNAVAGKGMGYFSTIKEAFVFAFPPPAIVELGTANGFNMFLQDRVGLGHDELLNARNMLLGMASKSPVLAGVRPNGQEDMPELQLDIDLAKAEALGVTQTDINSTLSTAWGSRYVNDFIDRGRVKKVYMQGEADSRMVPEDLNKWYVRNNNGDMVPFAAFASSHWSYGSPRLERYNGFSAMEIQGSAAPGYSTGQAMDEMERLVKQLPNGIASEWSGISYQERSSGGQAPLLYGLSLLFVFLCLAALYESWSVPFAVMIIVPLGIFGAIMAALIGNLSNDIYLQVGLLTTIGLASKNAILIVEFAIHKMEEGLSLVDAAIAAVKLRLRPVLMTSLAFICGVVPLAIASSAGSGAQNALGISIIGGTLAASTLVVLFVPLFFVLVRKTFSSKSAVATKESE
B2: Pseudomonas putida KT2440: heterologous RND efflux pump, AcrB homolog from Pseudomonas putida KT2440 (protein, listed as Pseudomonas putida)
chain: MSKFFIDRPIFAWVIALVIMLVGALSILKLPINQYPSIAPPAIAIAVTYPGASAQTVQDTVVQVIEQQLNGIDNLRYVSSESNSDGSMTITATFEQGTNPDTAQVQVQNKLNLATPLLPQEVQQQGIRVTKAVKNFLLVIGLVSEDGSMTKDDLANYIVSNMQDPISRTAGVGDFQVFGAQYAMRIWLDPAKLNKFQLTPVDVKTAVAAQNVQVSSGQLGGLPALPGTQLNATIIGKTRLQTAEQFESILLKVNKDGSQVRLGDVAQVGLGGENYAVSAQFNGKPASGLAVKLATGANALDTAKALRETIKGLEPFFPPGVKAVFPYDTTPVVTESISGVIHTLIEAVVLVFLVMYLFLQNFRATIITTMTVPVVLLGTFGILAAAGFSINTLTMFAMVLAIGLLVDDAIVVVENVERVMSEEGLPPKEATKRSMEQIQGALVGIALVLSAVLLPMAFFGGSTGVIYRQFSITIVSAMGLSVLVALIFTPALCATMLKPLKKGEHHTAKGGFFGWFNRNFDRSVNGYERSVGAILRNKVPFLLAYALIVVGMIWLFARIPTAFLPEEDQGVLFAQVQTPAGSSAERTQVVVDQMREYLLKDEADTVSSVFTVNGFNFAGRGQSSGMAFIMLKPWDERSKENSVFALAQRAQQHFFTFRDAMVFAFAPPAVLELGNATGFDVFLQDRGGVGHEKLMEARNQFLAKAAQSKILSAVRPNGLNDEPQYQLTIDDERASALGVTIADINNTLSIALGASYVNDFIDRGRVKKVYIQGEPSARMSPEDLQKWYVRNGAGEMVPFSSFAKGEWTYGSPKLSRYNGVEAMEILGAPAPGYSTGEAMAEVERIAGELPSGIGFSWTGMSYEEKLSGSQMPALFALSVLFVFLCLAALYESWSIPIAVVLVVPLGIIGALIATSLRGLSNDVYFLVGLLTTIGLAAKNAILIVEFAKELHEQGRSLYDAAIEACRMRLRPIIMTSLAFILGVVPLTIASGAGAGSQHAIGTGVIGGMISATVLAIFWVPLFFVAVSSLFGSKEPEKDVTPENPRYEAGQ
B3: Marinobacter aqueolei EPL: heterologous RND efflux pump, AcrB homolog from Marinobacter aqueolei EPL (protein, listed as Marinobacter aqueolei)
chain: MPRFFIERPIFAWVVALMLMLGGGLAVKNLAVNQFPDVAPPAIALSVNYPGASAQTVQDTVVQVIEQQLNGLDGLRYISSESNSDGSMTIIATFEQGTDPDIAQVQVQNKLQLANPLLPEEVQRQGIRVSKYKVNFFTVFALTSPDGKYTQGDLADYIVSNIQDPVARTQGVGDFLLFGSQYAMRLWLDPEKLNSYQLTPQDVINSVRAQNVQVSAGQLGGLPTAEGVQLQATVIGKQRMKTAEEFENILLKVNPDGSQVRLADVAEVNLGNENYATTGKYNGAPAAGMALRLATGANQLETAGRVKETLAELERFLPEGVEIVFPYDTTPVVSASIETVAMTLIEAVVLVFLVMFLFLQSWRATIIPTLAVPVVLLATFGVLYAFGFTVNVMTMFAMVLAIGLLVDDAIVVVENVERLMEEEGLSPKEAAKKSMDQISGALLGIGLVISAVFLPMAFFGGSTGVIYRQFSVTIISAMSFSVLVAFIFTPALCATLLKPGDQHVRKGFFGWFNRTFDRSADRYKSGVSYLIKRKGRFMGVYLLLVVAVGFLFKGLPTAFLPDEDQGVMIVMVQLPTNATGERTEAVLAEAGNYLLEEESEVVKSVMSVRGFNFAGRGQNSGILFVDLKPFADRESFAQSVFALAGRSGARFAQIKDAIVFPIVPPAILELGNATGFDLYLKDNGAIGHHALMAATNEFISRANAAPELNMVRHNGLPDEPQYQVIIDDEKARLLQVSIADINATMSAAWGSSYVNDFLHNGRVKKVYVQGKPDSRLAPEDFDKWFVRNAQGEMVPFAAFATGEWVFGSPRLQRYQGLPATQIQGAPANGYSTGDAMAALERIAADLPQGLGLEYTGLSFEEKQAGNQAMMLYLLSILVVFLCLAALYESWSIPFAVIMLVPLGVLGAVLATMARGLSNDVFFQVGMLTTMGLAAKNAILIVEFARQLYEQEGKPLLQATAEAARLRLRPIIMTSLAFIFGVLPMAIASGASSASQHAIGTAVVGGTLAATILAIFFVPLFYVFVVGLTGKRKSADD

These molecules were tested on E. coli DH1 ΔacrAB (assay: Survival test of heterologous efflux pump library in 1-hexene saturated atmosphere). Settings: FIG. 7.
Format: cell-based
Description: FIG. 7: Impact of homologous pumps on growth in presence of 1-hexene. Survival test of E. coli DH1 ΔacrAB producing either the AcrAB wild type or AcrAB homologs in a 1-hexene saturated atmosphere was performed. One dilution of cultures (10^6 cells) was spotted on agar plate. […] From left to right and from top to bottom of the picture, are culture of strains producing the pumps A. vinelandii (YP_002797425), A. vinelandii (MexF), A. vinelandii (YP_002801502), P. putida (TtgB), P. putida (NP_745594), P. putida (MexF), P. putida (NP_743067), P. aeruginosa (MexB), P. aeruginosa (NP_250708), P. aeruginosa (MexF), P. aeruginosa (NP_253065), P. fluorescens (YP_258460), P. fluorescens (YP_260376), P. fluorescens (YP_258159), P. fluorescens (YP_258289), R. metallidurans (YP_586997), R. melallidurans (YP_583276), R. metallidurans (YP_583852), M. aqueolei (YP_960752), M. aqueolei (YP_957870), P. syringae (YP_276144), P. syringae (YP_275089), P. syringae (MdtB), P. syringae (YP_273025), P. syringae (YP_273463), P. syringae (YP_272632), G. metallireducens (YP_383777), G. metallireducens (YP_384620), G. metallireducens (YP_385464), G. metallireducens (YP_384608), G. metallireducens (YP_386066), B. pertussis (NP_880739), D. vulgaris (YP_009662), S. putrefaciens (YP_001181626), A. borkumensis (YP_692684), B. borkumensis (YP_694242), P. haloplanktis (AcrB), S. halifaxensis (YP_001672433), S. halifaxensis (YP_001673423), S. halifaxensis (YP_001674385), E. coli (AcrEF), E. coli (AcrAB), E. coli (AcrD).
An existing library of heterologous efflux pumps in E. coli (Dunlop et al. 2011) was used to test if another pump may provide better tolerance to 1-hexene than the native E. coli AcrAB-TolC system. Using the agar plate-based method, this strain library constructed in a DH1 ΔacrAB background was tested and the survival compared in presence of 1-hexene relative to the strain expressing an equivalent plasmid-borne copy of the native acrAB genes.
To test the heterologous efflux pump library, the same method was used. […]
With B1 the “tolerance to 1-hexene relative to the native E. coli acrAB-expressing strain” value was “equivalent tolerance”.
With B2 the “tolerance to 1-hexene relative to the native E. coli acrAB-expressing strain” value was “equivalent tolerance”.
For B3, the “tolerance to 1-hexene relative to the native E. coli acrAB-expressing strain” value was “equivalent tolerance”.
